What is called Kd is the free concentration of one partner at which half of the binding sites on the other are occupied at equilibrium, for simple one-to-one binding.

In test [1] the target is ErbB3 expressed on 4E9H3 cells (K562 cells stably transfected with erbB3 cDNA) (UniProt P21860). Kind of test: Scatchard analysis of competitive 125I-HRG binding to 4E9H3 cells, in the presence of 100 nM 3-8D6 Fab.
Test [2] has the same target. The experiment in a line: Scatchard analysis of competitive 125I-HRG binding to 4E9H3 cells, in the presence of 100 nM 3-8D6 IgG.
Test [3] has the same target. Kind of test: Scatchard analysis of competitive 125I-HRG binding to 4E9H3 cells, no antibody.

Sequence of UniProt P21860 (P21860 20-1342 limits assumed): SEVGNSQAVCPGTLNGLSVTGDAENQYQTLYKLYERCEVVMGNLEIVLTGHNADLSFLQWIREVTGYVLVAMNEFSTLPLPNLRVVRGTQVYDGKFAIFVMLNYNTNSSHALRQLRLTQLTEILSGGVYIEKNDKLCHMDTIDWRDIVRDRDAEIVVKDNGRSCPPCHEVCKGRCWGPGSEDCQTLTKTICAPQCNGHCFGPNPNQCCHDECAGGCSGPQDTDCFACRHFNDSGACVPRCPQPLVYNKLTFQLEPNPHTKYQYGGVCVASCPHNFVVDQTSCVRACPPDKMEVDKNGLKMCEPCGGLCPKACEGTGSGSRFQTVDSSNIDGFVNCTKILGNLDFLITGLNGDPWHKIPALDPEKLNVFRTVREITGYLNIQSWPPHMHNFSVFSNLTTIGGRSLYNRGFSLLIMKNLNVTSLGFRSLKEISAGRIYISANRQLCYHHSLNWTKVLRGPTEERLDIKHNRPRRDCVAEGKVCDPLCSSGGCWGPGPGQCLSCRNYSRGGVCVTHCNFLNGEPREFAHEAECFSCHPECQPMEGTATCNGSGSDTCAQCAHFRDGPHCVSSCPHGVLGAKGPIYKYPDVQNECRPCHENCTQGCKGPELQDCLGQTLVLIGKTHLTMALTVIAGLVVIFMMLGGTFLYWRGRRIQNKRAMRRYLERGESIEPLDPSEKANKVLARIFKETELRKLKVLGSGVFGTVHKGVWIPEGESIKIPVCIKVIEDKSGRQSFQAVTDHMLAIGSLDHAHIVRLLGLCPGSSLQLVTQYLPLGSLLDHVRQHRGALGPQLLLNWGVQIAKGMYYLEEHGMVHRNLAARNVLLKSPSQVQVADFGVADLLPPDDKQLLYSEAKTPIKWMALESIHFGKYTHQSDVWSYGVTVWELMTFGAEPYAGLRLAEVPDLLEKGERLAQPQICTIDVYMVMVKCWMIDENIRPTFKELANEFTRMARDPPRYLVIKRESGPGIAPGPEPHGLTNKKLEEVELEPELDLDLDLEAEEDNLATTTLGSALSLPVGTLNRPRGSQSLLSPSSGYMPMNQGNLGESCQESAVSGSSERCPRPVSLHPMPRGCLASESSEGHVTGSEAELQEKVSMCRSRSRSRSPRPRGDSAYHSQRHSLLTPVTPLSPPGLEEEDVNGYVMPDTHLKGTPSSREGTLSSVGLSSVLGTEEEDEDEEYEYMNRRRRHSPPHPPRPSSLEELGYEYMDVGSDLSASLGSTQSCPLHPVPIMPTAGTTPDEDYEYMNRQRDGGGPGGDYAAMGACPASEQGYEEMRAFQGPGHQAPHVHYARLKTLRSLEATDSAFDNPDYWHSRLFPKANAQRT

Consider “HRGβ1(177-244), EGF-like domain of the β1 isoform of heregulin (from UniProt Q02297 177-244) (ligand)”, for which the results for the Kd in test [1], in test [2] and in test [3] were 0.28 nM, 0.21 nM and 1.2 nM, respectively. Besides, the Sites/Cell is 290000 sites/cell in test [1], 240000 sites/cell in test [2] and 360000 sites/cell in test [3].
